Test system: His-PTB (polypyrimidine tract-binding protein, pETPTB), P26599-1
Assay: EMSA

For “GGGCCAGACACUGAUUAUAUGGUUCAUAUGGGUAAUUACCUUCCCUAGGCUAAGGACUAACUGGUAUAUACCAUAAUUAAA [SHFV 3'(+)NCR RNA]”, the Kd was 7 nM.
